Source: patent publication US20230407373A1 (priority 2020, published 2023)
Like-named read-outs stand apart in the source and are kept apart here.

Key:
Assay type in all cases: binding
HCoV-OC43 gRNA and sgRNA = details: for target (spectral count) / background (spectral count): type s_36_m, Probe II; for target (spectral count): HCoV-OC43-infected HCT-8 cells; for background (spectral count): uninfected-probe control
SARS-CoV-2 gRNA = details: […]; LC-MS/MS; Probe I sample (first 199 lines of Table 2)
[1] = test system: SARS-CoV-2 gRNA and sgRNAs; details: for target (unweighted spectral count in RNP capture): Probe II capture, LC-MS/MS LFQ; for background (unweighted spectral count in control): no-probe control pull-down, used as background for Probe II
gRNA of HCoV-OC43 = details: for target (spectral count) / background (spectral count): type g_36_m, 36 hpi, Probe I; for target (spectral count): HCoV-OC43-infected HCT-8 cells; for background (spectral count): uninfected-probe control
[2] = 36 hpi, type n_36_v, tested against no-probe control, FDR<10%
[3] = OC43 Probe II, 12 hpi (type n_12_v), infected cells, tested against no-probe control
[4] = OC43 Probe II, 24 hpi (type n_24_v), infected cells, tested against no-probe control
[5] = type n_48_v, 48 hpi, OC43 Probe II capture on infected cells
[6] = type n_48_v, 48 hpi, no-probe control on infected cells
[7] = type n_48_v: 48 hours post-infection, infected cells, OC43 Probe I, unweighted spectral count
[8] = type n_48_v: 48 hours post-infection, no-probe control on infected cells

| Molecule | background (unweighted spectral count, no-probe control) (HCoV-OC43 gRNA and sgRNA) | target (unweighted spectral count) (HCoV-OC43 gRNA and sgRNA) | target (unweighted spectral count, OC43 Probe II capture) (HCoV-OC43 gRNA and sgRNA) | target (unweighted spectral count, OC43 Probe II) (HCoV-OC43 gRNA and sgRNA) | target (unweighted spectral count of the protein in the RNP capture) (SARS-CoV-2 gRNA) | target (unweighted spectral count in RNP capture) [1] | background (unweighted spectral count in control) [1] | background (spectral count, no-probe control) (gRNA of HCoV-OC43) | target (spectral count, OC43 Probe I RNP capture) (gRNA of HCoV-OC43) | target (unweighted spectral count, OC43 Probe II capture) (HCoV-OC43 gRNA and sgRNA; [2]) | target (unweighted spectral count) (HCoV-OC43 gRNA and sgRNA; [3]) | target (unweighted spectral count) (HCoV-OC43 gRNA and sgRNA; [4]) | target (unweighted spectral count, OC43 Probe II) (HCoV-OC43 gRNA and sgRNA; [5]) | background (unweighted spectral count, no-probe control) (HCoV-OC43 gRNA and sgRNA; [6]) | target (spectral count) (HCoV-OC43 gRNA and sgRNA; 36 hpi) | background (spectral count) (HCoV-OC43 gRNA and sgRNA; 36 hpi) | target (spectral count) (gRNA of HCoV-OC43) | background (spectral count) (gRNA of HCoV-OC43) | target (spectral count, OC43 Probe I RNP capture) (gRNA of HCoV-OC43; [7]) | background (spectral count, no-probe control) (gRNA of HCoV-OC43; [8]) |
| --- | --- | --- | --- | --- | --- | --- | --- | --- | --- | --- | --- | --- | --- | --- | --- | --- | --- | --- | --- | --- |
| SRSF3 (protein, UniProt P84103 1-164, looked up) Serine/arginine-rich splicing …: MHRDSCPLDCKVYVGNLGNNGNKTELERAFGYYGPLRSVWVARNPPGFAFVEFEDPRDAADAVRELDGRTLCGCRVRVELSNGEKRSRNRGPPPSWGRRPRDDYRRRSPPPRRRSPRRRSFSRSRSRSLSRDRRRERSLSRERNHKPSRSFSRSRSRSRSNERK | 3 | 6 | 18 | 16 | 16 | 20 | 1 | 3 | 14 |  |  |  |  |  |  |  |  |  |  |  |
| ILF3: host protein, UniProt Q12906 (protein, UniProt Q12906 1-894, looked up) Interleukin enhancer-binding …: MRPMRIFVNDDRHVMAKHSSVYPTQEELEAVQNMVSHTERALKAVSDWIDEQEKGSSEQAESDNMDVPPEDDSKEGAGEQKTEHMTRTLRGVMRVGLVAKGLLLKGDLDLELVLLCKEKPTTALLDKVADNLAIQLAAVTEDKYEILQSVDDAAIVIKNTKEPPLSLTIHLTSPVVREEMEKVLAGETLSVNDPPDVLDRQKCLAALASLRHAKWFQARANGLKSCVIVIRVLRDLCTRVPTWGPLRGWPLELLCEKSIGTANRPMGAGEALRRVLECLASGIVMPDGSGIYDPCEKEATDAIGHLDRQQREDITQSAQHALRLAAFGQLHKVLGMDPLPSKMPKKPKNENPVDYTVQIPPSTTYAITPMKRPMEEDGEEKSPSKKKKKIQKKEEKAEPPQAMNALMRLNQLKPGLQYKLVSQTGPVHAPIFTMSVEVDGNSFEASGPSKKTAKLHVAVKVLQDMGLPTGAEGRDSSKGEDSAEETEAKPAVVAPAPVVEAVSTPSAAFPSDATAEQGPILTKHGKNPVMELNEKRRGLKYELISETGGSHDKRFVMEVEVDGQKFQGAGSNKKVAKAYAALAALEKLFPDTPLALDANKKKRAPVPVRGGPKFAAKPHNPGFGMGGPMHNEVPPPPNLRGRGRGGSIRGRGRGRGFGGANHGGYMNAGAGYGSYGYGGNSATAGYSQFYSNGGHSGNASGGGGGGGGGSSGYGSYYQGDNYNSPVPPKHAGKKQPHGGQQKPSYGSGYQSHQGQQQSYNQSPYSNYGPPQGKQKGYNHGQGSYSYSNSYNSPGGGGGSDYNYESKFNYSGSGGRSGGNSYGSGGASYNPGSHGGYGGGSGGGSSYQGKQGGYSQSNYNSPGSGQNYSGPPSSYQSSQGGYGRNADHSMNYQYR |  |  |  |  | 15 | 15 | 1 |  |  | 31 | 7 | 14 | 36 | 2 | 31 | 3 | 39 | 3 | 38 | 2 |
| HNRNPH3 (protein, UniProt P31942 1-346, looked up) Heterogeneous nuclear …: MDWVMKHNGPNDASDGTVRLRGLPFGCSKEEIVQFFQGLEIVPNGITLTMDYQGRSTGEAFVQFASKEIAENALGKHKERIGHRYIEIFRSSRSEIKGFYDPPRRLLGQRPGPYDRPIGGRGGYYGAGRGSMYDRMRRGGDGYDGGYGGFDDYGGYNNYGYGNDGFDDRMRDGRGMGGHGYGGAGDASSGFHGGHFVHMRGLPFRATENDIANFFSPLNPIRVHIDIGADGRATGEADVEFVTHEDAVAAMSKDKNNMQHRYIELFLNSTPGGGSGMGGSGMGGYGRDGMDNQGGYGSVGRMGMGNNYSGGYGTPDGLGGYGRGGGGSGGYYGQGGMSGGGWRGMY |  |  |  |  | 23 | 17 | 1 |  |  | 18 | 6 | 15 | 21 | 2 |  |  |  |  | 16 | 2 |
| PURA (protein, UniProt Q00577 2-322, looked up) Transcriptional activator …: ADRDSGSEQGGAALGSGGSLGHPGSGSGSGGGGGGGGGGGGSGGGGGGAPGGLQHETQELASKRVDIQNKRFYLDVKQNAKGRFLKIAEVGAGGNKSRLTLSMSVAVEFRDYLGDFIEHYAQLGPSQPPDLAQAQDEPRRALKSEFLVRENRKYYMDLKENQRGRFLRIRQTVNRGPGLGSTQGQTIALPAQGLIEFRDALAKLIDDYGVEEEPAELPEGTSLTVDNKRFFFDVGSNKYGVFMRVSEVKPTYRNSITVPYKVWAKFGHTFCKYSEEMKKIQEKQREKRAACEQLHQQQQQQQEETAAATLLLQGEEEGEED |  |  |  |  | 15 | 19 | 1 |  |  | 5 |  |  | 12 | 1 |  |  |  |  | 7 | 1 |
| FUBP1: host protein, UniProt Q96AE4 (protein, UniProt Q96AE4 2-644, looked up) Far upstream element-binding …: ADYSTVPPPSSGSAGGGGGGGGGGGVNDAFKDALQRARQIAAKIGGDAGTSLNSNDYGYGGQKRPLEDGDQPDAKKVAPQNDSFGTQLPPMHQQQSRSVMTEEYKVPDGMVGFIIGRGGEQISRIQQESGCKIQIAPDSGGLPERSCMLTGTPESVQSAKRLLDQIVEKGRPAPGFHHGDGPGNAVQEIMIPASKAGLVIGKGGETIKQLQERAGVKMVMIQDGPQNTGADKPLRITGDPYKVQQAKEMVLELIRDQGGFREVRNEYGSRIGGNEGIDVPIPRFAVGIVIGRNGEMIKKIQNDAGVRIQFKPDDGTTPERIAQITGPPDRCQHAAEIITDLLRSVQAGNPGGPGPGGRGRGRGQGNWNMGPPGGLQEFNFIVPTGKTGLIIGKGGETIKSISQQSGARIELQRNPPPNADPNMKLFTIRGTPQQIDYARQLIEEKIGGPVNPLGPPVPHGPHGVPGPHGPPGPPGPGTPMGPYNPAPYNPGPPGPAPHGPPAPYAPQGWGNAYPHWQQQAPPDPAKAGTDPNSAAWAAYYAHYYQQQAQPPPAAPAGAPTTTQTNGQGDQQNPAPAGQVDYTKAWEEYYKKMGQAVPAPTGAPPGGQPDYSAAWAEYYRQQAAYYAQTSPQGMPQHPPAPQGQ |  |  |  |  | 32 | 21 | 1 |  |  | 17 | 6 | 12 | 21 | 2 | 17 | 1 | 15 | 2 |  | 2 |
| SSBP1 (protein, UniProt Q04837 17-148, looked up) Single-stranded DNA-binding …: ESETTTSLVLERSLNRVHLLGRVGQDPVLRQVEGKNPVTIFSLATNEMWRSGDSEVYQLGDVSQKTTWHRISVFRPGLRDVAYQYVKKGSRIYLEGKIDYGEYMDKNNVRRQATTIIADNIIFLSDQTKEKE |  |  |  |  | 14 | 7 | 1 |  |  | 12 | 44 | 25 | 14 | 3 |  |  |  |  | 16 | 3 |
| SAFB: host protein, UniProt Q15424 (protein, UniProt Q15424 2-915, looked up) Scaffold attachment factor B1: AETLSGLGDSGAAGAAALSSASSETGTRRLSDLRVIDLRAELRKRNVDSSGNKSVLMERLKKAIEDEGGNPDEIEITSEGNKKTSKRSSKGRKPEEEGVEDNGLEENSGDGQEDVETSLENLQDIDIMDISVLDEAEIDNGSVADCVEDDDADNLQESLSDSRELVEGEMKELPEQLQEHAIEDKETINNLDTSSSDFTILQEIEEPSLEPENEKILDILGETCKSEPVKEESSELEQPFAQDTSSVGPDRKLAEEEDLFDSAHPEEGDLDLASESTAHAQSSKADSLLAVVKREPAEQPGDGERTDCEPVGLEPAVEQSSAASELAEASSEELAEAPTEAPSPEARDSKEDGRKFDFDACNEVPPAPKESSTSEGADQKMSSPEDDSDTKRLSKEEKGRSSCGRNFWVSGLSSTTRATDLKNLFSKYGKVVGAKVVTNARSPGARCYGFVTMSTAEEATKCINHLHKTELHGKMISVEKAKNEPVGKKTSDKRDSDGKKEKSSNSDRSTNLKRDDKCDRKDDAKKGDDGSGEKSKDQDDQKPGPSERSRATKSGSRGTERTVVMDKSKGVPVISVKTSGSKERASKSQDRKSASREKRSVVSFDKVKEPRKSRDSESHSRVRERSEREQRMQAQWEREERERLEIARERLAFQRQRLERERMERERLERERMHVEHERRREQERIHREREELRRQQELRYEQERRPAVRRPYDLDRRDDAYWPEAKRAALDERYHSDFNRQDRFHDFDHRDRGRYPDHSVDRREGSRSMMGEREGQHYPERHGGPERHGRDSRDGWGGYGSDKRMSEGRGLPPPPRRDWGDHGRREDDRSWQGTADGGMMDRDHKRWQGGERSMSGHSGPGHMMNRGGMSGRGSFAPGGASRGHPIPHGGMQGGFGGQSRGSRPSDARFTRRY |  |  |  |  | 20 | 11 | 1 |  |  | 7 |  |  | 9 | 1 | 7 | 1 |  |  | 11 | 1 |
